The target in experiment [1] is T1, human ROR2-hFc fusion protein (extracellular domain) (human, UniProt Q01974 34-403).
T1 construct: extracellular domain; Immobilised by amine coupling; also called hROR2; not shown: human Fc (hFc)
The experiment can be described thus: SPR (Pioneer) or BLI (Octet K2); ROR2-hFc extracellular domain amine-coupled. The method, then:
(§1) VNARs were genetically fused to engineered hIgG1 Fc domains via standard [G₄S]₃ that contained a cysteine substitution in the hIgG1 Fc sequence, S239C (EU numbering). The VNAR Fc fusion proteins were expressed as secreted protein in CHO K1 cells and purified from the media using MabSelect™ SuRe™ (Evitria, Switzerland). Purified proteins were analysed by SEC (AdvanceBio, Agilent), SDS PAGE and mass spectrometry to confirm sequence and protein integrity. Binding kinetics were determined using a Pioneer Surface Plasmon Resonance (SPR) instrument (SensiQ/Pall ForteBio), or the Biolayer Interferometry (BLI) Octet K2 system (ForteBio). ROR1-hFc or ROR2-hFc fusion proteins (extracelluar domains) were immobilised in sodium acetate pH5 buffer to COOH₂ chips or AR2G sensors using amine coupling. VNARs and VNAR-Fc molecules were tested at various concentrations and the Ka (M⁻¹ s⁻¹), Kd (s⁻¹) and KD (nM) values were determined using QDat software (SensiQ/Pall ForteBio) or Octet Data Analysis High Throughput software (ForteBio) for Biolayer Interferometry.
A general note: Biolayer interferometry detects binding as a change in optical thickness at a sensor tip.

In experiment [2] the target is T2, human ROR1-hFc fusion protein (extracellular domain) (human, UniProt Q01973 30-406).
T2 construct: extracellular domain; Immobilised by amine coupling on COOH2 chips or AR2G sensors; also called hROR1; not shown: human Fc (hFc)
The experiment can be described thus: SPR (Pioneer) or BLI (Octet K2); ROR1-hFc extracellular domain amine-coupled. As for the experimental part: as §1

Residue numbers refer to the chain shown, from its start. Numbers in names are those of the source.

B1: hFc - P3A1 (Fc fusion)
chain: GGGGSGGGGSGGGGSTRVDQTPRTATKETGESLTINCVLTDTSYGLYSTSWFRKNPGTTDWERMSIGGRYVESVNKGAKSFSLRIKDLTVADSATYYCKAREARHPWLRQWYDGAGTVLTVN
notes: VNAR at the C-terminus of the Fc, by the printed name; not shown: human IgG1 Fc domain
For the molecule B1, the binding result in experiment [1] is reported as “no binding”. For the same molecule, the koff (usually a measure of how fast the partners let go of each other) in experiment [2] stood at 0.000776 s⁻¹.

B2: B1V15 hFc (Fc fusion)
chain: ASVTQSPRSASKETGESLTITCRVTGANYGLAATYWYRKNPGSSNQERISISGRYSESVNKRTMSFSLRISSLTVEDSATYYCKAYPWGAGAPWLVQWYDGQGTKLEVKGGGGSGGGGSGGGGS
notes: Humanised B1 variant fused to hFc; not shown: human IgG1 Fc domain
Take B2: the binding result in experiment [1] is recorded as “no binding”. Also, in experiment [2], binding was put at a Kd of 0.726 nM; the koff worked out at 0.00013 s⁻¹; the kon – broadly, the rate constant with which the complex forms – was determined as 179000 M⁻¹ s⁻¹.

B3: P3A1 hFc(442) (Fc fusion)
chain: TRVDQTPRTATKETGESLTINCVLTDTSYGLYSTSWFRKNPGTTDWERMSIGGRYVESVNKGAKSFSLRIKDLTVADSATYYCKAREARHPWLRQWYDGAGTVLTVNGGGGSGGGGSGGGGS
notes: hIgG1 Fc with S442C (EU); also called P3A1hFc(S442C); not shown: human IgG1 Fc domain
B3: the binding result in experiment [1] is recorded as “no binding”. Also, in experiment [2], the Kd (as a rule, the constant that tells how readily two partners part at equilibrium) came to 0.741 nM; the koff was found to be 0.0002 s⁻¹; the kon was found to be 270000 M⁻¹ s⁻¹.

B4: P3A1 hFc (Fc fusion)
chain: B3 chain
notes: VNAR fused to engineered hIgG1 Fc via [G4S]3; also called P3A1hFc(S239C); not shown: human IgG1 Fc domain
In the case of B4, in experiment [1], the binding result is reported as “no binding”. For the same molecule, the koff in experiment [2] worked out at 0.000564 s⁻¹.

B5: 2V hFc (Fc fusion)
chain: B3 chain with R86Q, E87S, A88L, R89A, H90I, P91S, W92T, L93R, R94S, Q95Y
notes: Control VNAR from a naive library, no known target; not shown: human IgG1 Fc domain
As for B5, the binding result in experiment [1] and in experiment [2] was “no binding” each time.

The record behind these values is patent US20230241072A1 (ALMAC DISCOVERY, published 2023).
